Experimental data as given in patent US7803572B2, “Protease detection assay” (Atlas Genetics, Ltd., priority 2003, dated 2010).
Like-named read-outs stand apart in the source and are kept apart here.

How the values were obtained:
porcine pancreas trypsin = molecular target: T1, porcine pancreas trypsin (Sus scrofa, UniProt P00761); experiment: Digestion of labelled protein with trypsin, differential pulse voltammetry; format: biochemical
T1 construct: purchased Sigma; host or cells: porcine pancreas
Protocol: (§1) Protease assays were performed as follows unless stated otherwise. […] Samples were incubated at 37° C. for 1 hour.
A digestion of Fc-BSA with trypsin was carried out as described above. […] The positive reaction has a peak position of 435 mV and a peak height of 4.58×10^−7 A; the no trypsin control reaction has a peak position of 432 mV and a peak height of 2.55×10^−8 A.
A digestion of unlabelled BSA with trypsin was carried out in the same manner as for the labelled molecules as described above. The differential pulse voltammogram results are shown in FIG. 10 in which (a) is the trace for a no-trypsin control reaction and (b) is the trace for trypsin BSA reaction.
A digestion of FcU-BSA with trypsin was carried out as described above. […] The positive reaction has a peak position of 97 mV and a peak height of 5.01×10^−7 A; there was no peak in the no-trypsin control reaction. […]
Five digestions of Fc-BSA with trypsin were carried out using the protocol described above. As described in the general protocol, 2 μl of enzyme was used for each 200 μl reaction; for reaction (i) 10 mg/ml enzyme solution was used; reaction (ii): 1 mg/ml; reaction (iii) 0.1 mg/ml; reaction (iv) 0.01 mg/ml and reaction (v) was a no-trypsin control. The differential pulse voltammogram results are shown in FIG. 14 with baseline correction.
Five digestions of Fc-BSA with trypsin were carried out using the protocol described above. In reaction (i) the incubation at 37° was carried out for 60 minutes, in reaction (ii) for 15 minutes, in reaction (iii) for 5 minutes, in reaction (iv) for 2 minutes and reaction (v) was a 0 minutes no-trypsin control. The differential pulse voltammogram results are shown in FIG. 15 with baseline correction.

[1] = molecular target: T2, type II bovine pancreas α-chymotrypsin (Bos taurus, UniProt P00766); experiment: Digestion of Fc-BSA with α-chymotrypsin, differential pulse voltammetry; format: biochemical
T2 construct: purchased Sigma; host or cells: bovine pancreas
Protocol: as §1
A digestion of Fc-BSA with α-chymotrypsin was carried out as described above. […] The positive reaction has a peak position of 438 mV and a peak height of 4.48×10^−7 A; the no α-chymotrypsin control reaction has a peak position of 432 mV and a peak height of 2.55×10^−8 A.

[2] = molecular target: T3, porcine stomach mucosa pepsin (Sus scrofa, UniProt P00791); experiment: Digestion of Fc-BSA with pepsin, differential pulse voltammetry; format: biochemical
T3 construct: purchased Sigma; host or cells: porcine stomach mucosa
Protocol: as §1
A digestion of Fc-BSA with pepsin was carried out as described above. […] The positive reaction has a peak position of 537 mV and a peak height of 8.90×10^−8 A; the no-pepsin control reaction has a peak position of 522 mV and a peak height of 4.19×10^−8 A.

carboxypeptidase = experiment: Digestion of Fc-BSA with carboxypeptidase, differential pulse voltammetry; format: biochemical
Protocol: as §1
A digestion of Fc-BSA with carboxypeptidase was carried out as described above. […] The positive reaction has a peak position of 435 mV and a peak height of 1.31×10^−7 A; the no elastase control reaction has a peak position of 427 mV and a peak height of 6.86×10^−8 A.

[3] = molecular target: Bacillus thermoproteolyticus rokko thermolysin (Bacillus thermoproteolyticus, UniProt P00800); details: for peak: no-thermolysin control reaction; for peak height / peak position: positive reaction
Protocol: The low volume cell of FIG. 1 was filled with approximately 10 ml sodium chloride solution (100 mM). A 200 μl aliquot of the sample for analysis was placed in the glass sample chamber which was then placed in the low volume cell along with the reference and counter electrodes. The electrodes were connected to the AUTOLAB electrochemical workstation and differential pulse voltammetry carried out using the parameters described in Table 1. Prior to analysis the glassy carbon working electrode was polished (using BAS polishing kit catalogue number MF-2060) followed by conditioning. Electrode conditioning consists of cyclic voltammetry, sweeping between +−1 volt in the appropriate background buffer.
Protease assays were performed as follows unless stated otherwise. Lyophilised enzymes were re-suspended to give a concentration of 10 mgml^−1. Enzymes were resuspended in the following solutions: HCl (1 mM, pH 3.0) (trypsin, α-chymotrypsin, pepsin), NaCl (100 mM) (proteinase K, elastase, papain, carboxypeptidase, thermolysin). 75 μl of Fc-BSA solution (0.3-0.6 mgml^−1) was used per reaction. Each reaction was carried out in a total volume of 200 μl and the reactions were performed in the following buffers (final concentrations are given): 100 mM tris HCl pH7.8 (trypsin, α-chymotrypsin, thermolysin, proteinase K); 100 mM tris HCl pH 8.5 (elastase); 200 mM sodium acetate, 200 mM cysteine, 20 mM EDTA (papain); 10 mM HCl pH 2.0 (pepsin); 25 mM tris HCl pH7.5, 500 mM NaCl (carboxypeptidase). 2 μl enzyme (10 mgml^−1) was added to the […] reaction mixture. Samples were incubated at 37° C. for 1 hour. The reaction products were analysed by differential pulse voltammetry as described in Example 1.
Baseline corrected data was obtained using GPES MANAGER (Ecochemie BV, Utrecht, Netherlands) selecting baseline correction from the edit data menu, selecting moving average, minimum peak width 0.003V.
A digestion of Fc-BSA with thermolysin was carried out as described above with the digestion incubation at 37° C.
A digestion of Fc-BSA with thermolysin was carried out as described above with the digestion incubation at 70° C.

[4] = Example 6 reaction (i): 2 μl of 10 mg/ml enzyme solution
[5] = Example 6 reaction (ii): 1 mg/ml enzyme solution
[6] = Example 6 reaction (iii): 0.1 mg/ml enzyme solution
[7] = Example 6 reaction (iv): 0.01 mg/ml enzyme solution
[8] = Example 6 reaction (v): no-trypsin control
[9] = Example 7 reaction (i): incubation at 37° for 60 minutes
[10] = Example 7 reaction (ii): 15 minutes
[11] = Example 7 reaction (iii): 5 minutes
[12] = Example 7 reaction (iv): 2 minutes
[13] = Example 7 reaction (v): 0 minutes no-trypsin control
[14] = positive reaction, 2 μl enzyme (10 mgml^−1), 37° C. for 1 hour
[15] = no α-chymotrypsin control reaction
[16] = positive reaction, 37° C. for 1 hour
[17] = positive reaction, 10 mM HCl pH 2.0, 37° C. for 1 hour

T3 sequence (P00791 60-385): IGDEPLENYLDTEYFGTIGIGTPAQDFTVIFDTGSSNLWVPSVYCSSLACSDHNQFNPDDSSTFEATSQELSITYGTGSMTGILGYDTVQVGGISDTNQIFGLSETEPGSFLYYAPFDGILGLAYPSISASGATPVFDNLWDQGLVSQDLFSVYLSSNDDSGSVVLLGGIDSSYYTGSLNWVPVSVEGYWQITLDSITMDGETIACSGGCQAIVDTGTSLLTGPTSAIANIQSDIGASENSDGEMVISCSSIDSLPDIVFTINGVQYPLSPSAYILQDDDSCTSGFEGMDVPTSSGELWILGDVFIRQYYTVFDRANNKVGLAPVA
T1 sequence (P00761 9-231): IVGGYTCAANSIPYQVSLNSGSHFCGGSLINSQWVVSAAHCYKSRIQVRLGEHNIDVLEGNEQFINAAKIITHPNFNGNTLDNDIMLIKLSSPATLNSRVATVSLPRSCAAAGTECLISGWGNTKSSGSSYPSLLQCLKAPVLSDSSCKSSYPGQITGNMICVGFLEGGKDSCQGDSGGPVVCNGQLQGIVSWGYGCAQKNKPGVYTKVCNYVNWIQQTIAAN
Bacillus thermoproteolyticus rokko thermolysin, sequence (P00800 233-548): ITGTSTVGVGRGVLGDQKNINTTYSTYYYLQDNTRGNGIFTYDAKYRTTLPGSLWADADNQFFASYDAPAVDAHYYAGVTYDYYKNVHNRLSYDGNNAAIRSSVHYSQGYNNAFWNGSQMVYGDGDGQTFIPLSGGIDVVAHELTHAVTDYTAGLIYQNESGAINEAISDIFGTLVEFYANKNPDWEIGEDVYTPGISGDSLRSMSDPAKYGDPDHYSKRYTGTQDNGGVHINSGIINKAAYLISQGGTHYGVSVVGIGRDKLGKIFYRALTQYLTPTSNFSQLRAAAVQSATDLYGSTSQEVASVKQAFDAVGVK

For “Fc-BSA: Bovine serum albumin labelled with ferrocene methanoyl groups via N-hydroxysuccinimide ester; estimated 10 to 20 ferrocenes per BSA”, the peak height (porcine pancreas trypsin; [4]) was 5.42×10^−7 A, the peak position (porcine pancreas trypsin; [4]) was 430 mV and the peak height (porcine pancreas trypsin; [5]) was 2.29×10^−7 A. For the same substance, the peak position (porcine pancreas trypsin; [5]) was 428 mV, the peak height (porcine pancreas trypsin; [6]) was 1.04×10^−7 A and the peak position (porcine pancreas trypsin; [6]) was 429 mV. For the same substance, the peak height (porcine pancreas trypsin; [7]) was 7.53×10^8 A, the peak position (porcine pancreas trypsin; [7]) was 429 mV and the peak height (porcine pancreas trypsin; [8]) was 3.17×10^−9 A. The peak position (porcine pancreas trypsin; [8]) was 448 mV, the peak height (porcine pancreas trypsin; [9]) was 2.49×10^−7 A and the peak position (porcine pancreas trypsin; [9]) was 435 mV. The peak height (porcine pancreas trypsin; [10]) was 1.88×10^−7 A, the peak position (porcine pancreas trypsin; [10]) was 429 mV and the peak height (porcine pancreas trypsin; [11]) was 1.57×10^−7 A. For the same substance, the peak position (porcine pancreas trypsin; [11]) was 435 mV, the peak height (porcine pancreas trypsin; [12]) was 1.04×10^−7 A and the peak position (porcine pancreas trypsin; [12]) was 428 mV. The peak height (porcine pancreas trypsin; [13]) was 2.11×10^−8 A, the peak position (porcine pancreas trypsin; [13]) was 460 mV and the peak height (porcine pancreas trypsin; no-trypsin control reaction) was 2.55×10^−8 A. For the same substance, the peak position (porcine pancreas trypsin; no-trypsin control reaction) was 432 mV, the peak height (porcine pancreas trypsin; [14]) was 4.58×10^−7 A and the peak position (porcine pancreas trypsin; [14]) was 435 mV. The “factor by which current observed at 435 mV increases upon digestion” value (porcine pancreas trypsin; trypsin digestion vs no-trypsin control, FIG. 3) was 18, the peak height [1, 15] was 2.55×10^−8 A and the peak position [1, 15] was 432 mV. The peak height [1, 16] was 4.48×10^−7 A, the peak position [1, 16] was 438 mV and the peak height ([2]; no-pepsin control reaction) was 4.19×10^−8 A. The peak position ([2]; no-pepsin control reaction) was 522 mV, the peak height [2, 17] was 8.90×10^−8 A and the peak position [2, 17] was 537 mV. For the same substance, the peak height (carboxypeptidase; no elastase control reaction (so in the source)) was 6.86×10^−8 A, the peak height (carboxypeptidase; [16]) was 1.31×10^−7 A and the peak ([3]; 37° C.) was “no peak was found”. The peak ([3]; 70° C.) was “no peak was found”, the peak height ([3]; digestion incubation at 37° C.) was 1.62×10^−8 A and the peak position ([3]; digestion incubation at 37° C.) was 429 mV. The peak height ([3]; digestion incubation at 70° C.) was 2.0×10^−8 A and the peak position ([3]; digestion incubation at 70° C.) was 455 mV.
